For assay [1], the target named is purified soluble 8his-tagged BG505-QES.i03.c01 SOSIP (HIV-1 strain BG505). Kind of assay: ELISA, purified 8his SOSIP on nickel-coated plate. For orientation: An ELISA detects its analyte on a solid surface through an enzyme-linked reagent.
For assay [2], the target named is purified soluble 8his-tagged BG505 SOSIP.664 (T332N), wildtype (HIV-1 strain BG505). Kind of assay: ELISA, his-tagged SOSIP on nickel-coated plate, peroxidase anti-human IgG-Fc, OD 630 nm.
In assay [3] the target is DU422 gp140 (surface-displayed ectodomain) (HIV-1 strain DU422). Kind of assay: apparent dissociation constant, flow cytometry on Expi293F cells.
In assay [4] the target is 25711 Env I181L + V254T (QES.c02) (HIV-1 strain 25711). Kind of assay: flow cytometry titration on cells. A general note: In flow cytometry, cells or beads pass a laser one at a time.
The target in assay [5] is BaL Env QES.i01 + I181L + V255M (QES.i01.c01) (HIV-1 strain BaL). Kind of assay: flow cytometry titration on cells.
Assay [6] concerns the target Q769.d22 Env QES.i03 + V255M (QES.i03.V255M) (HIV-1 strain Q769.d22). Kind of assay: flow cytometry titration on cells.
In assay [7] the target is DU422 Env V181L + V254T + V255M (QES.c03) (HIV-1 strain DU422). The assay can be described thus: flow cytometry titration on cells.
The target of assay [8] is Q842.d12 Env QES.i04 + I181L (QES.i04.I181L) (HIV-1 strain Q842.d12). Kind of assay: flow cytometry titration on cells.
The target in a further assay is I491S. The assay can be described thus: flow cytometry, 2 nM PG16, transfected Expi293F cells, percent of cells in the positive gate (Negative: 0.5 %, 0.5 %).
The target in assay [9] is BaL Env gp160 wildtype (HIV-1 strain BaL). Described as above.
In a further assay the target is K617Q. The description is as above.
The target in the next assay is V36R. The description is as above.
Another assay has as its target E634A. The description is as above.
The next assay has as its target I251S. The assay is described as above.
Another assay addresses T319K. Described as above.
A further assay addresses V208G. The assay is described as above.
A further assay deals with W338A. The assay is described as above.
The next assay addresses Q540V. The description is as above.
The target in the next assay is T248E. The assay is described as above.
The target of a further assay is F159V. Described as above.
For the next assay, the target named is F223L. The assay is described as above.
The target of the next assay is D133W. The assay is described as above.
For the next assay, the target named is C331I. Described as above.
Another assay addresses S199C. The assay is described as above.
The target of a further assay is F93G. The assay is described as above.
In a further assay the target is I686R. The description is as above.
In a further assay the target is W614A. The assay is described as above.
For another assay, the target named is Y191I. The description is as above.
The target of a further assay is I201M. The assay is described as above.
In assay [10] the target is Q842.d12 Env P124D + F223Y + R557Q + I595M (Q842-QES.i04) (HIV-1 strain Q842.d12). Kind of assay: flow cytometry titration on Expi293F cells.
The target in assay [11] is Q769.d22 Env A200E + F223Y + I595M (Q769-QES.i03) (HIV-1 strain Q769.d22). The assay can be described thus: flow cytometry titration on Expi293F cells.
Assay [12] deals with BaL Env T49D + P124D + L663N (BaL-QES.i02) (HIV-1 strain BaL). The assay can be described thus: flow cytometry titration on Expi293F cells.
Assay [13] addresses BaL Env T49D + P124D + I595M (BaL-QES.i01) (HIV-1 strain BaL). Kind of assay: flow cytometry titration on Expi293F cells.
Assay [14] has as its target purified soluble 8his-tagged BG505 SOSIP.664 (T332N), wildtype (HIV-1 strain BG505). Kind of assay: ELISA, his-tagged SOSIP on copper-coated plate, peroxidase anti-human IgG-Fc, OD 630 nm.
The target of assay [15] is purified soluble 8his-tagged BG505-QES.i03.c01 SOSIP (HIV-1 strain BG505). The description is as above.
Assay [16] has as its target BaL Env gp160 wildtype (HIV-1 strain BaL). The assay can be described thus: apparent KD, flow cytometry titration on Expi293F cells.
The target of assay [17] is Q842.d12 Env gp160 wildtype (HIV-1 strain Q842.d12). The assay is described as above.
The target in assay [18] is Q842.d12 Env P124D + F223Y + R557Q + I595M (Q842-QES.i04) (HIV-1 strain Q842.d12). The assay is described as above.
The target of assay [19] is Q769.d22 Env A200E + F223Y + I595M (Q769-QES.i03) (HIV-1 strain Q769.d22). The assay is described as above.
Assay [20] addresses Q769.d22 Env gp160 wildtype (HIV-1 strain Q769.d22). Described as above.
In assay [21] the target is BaL Env T49D + P124D + L663N (BaL-QES.i02) (HIV-1 strain BaL). The description is as above.
The target in assay [22] is BaL Env T49D + P124D + I595M (BaL-QES.i01) (HIV-1 strain BaL). The assay is described as above.
Assay [23] deals with Q842.d12 Env gp160 wildtype (HIV-1 strain Q842.d12). Kind of assay: flow cytometry titration, transfected cells expressing the Env.
The target in assay [24] is Q842.d12 Env P124D + F223Y + R557Q + I595M (Q842-QES.i04) (HIV-1 strain Q842.d12). Kind of assay: flow cytometry, Expi293F cells.

pKd: −log10 of the molar value. Bounds are passed on as bounds.

In the case of CD4-IgG2 (Fc fusion), the fold reduction of apparent affinity against wildtype in assay [1] was determined as 5.5 fold. Besides, the concentration giving a half-maximal response (EC50 (read off the curve)) in [2] turned out to be 0.08 µg/mL.
As for PG16 (antibody), the pKd is 8.30 in assay [3]; 8.40 in [16]; 8.47 in assay [17]; 8.30 in assay [18]; 8.43 in assay [19]; 8.30 in assay [20]. Further, the pKd is 8.85 in assay [21] and 8.92 in assay [22]. Further, the fold more PG16 bound at saturation against wildtype in assay [4], in assay [5], in [6], in assay [7] and in assay [8] was < 5 fold throughout. Also, the percent positive cells (first of two replicates) with I491S came to 1.3%; in assay [9], 38%; in the assay with K617Q, 15%; with V36R it was 2.1%; with E634A, 11.1%; with I251S, 6.1%. In addition, the percent positive cells (first of two replicates) with T319K is 20.3%; in the assay with V208G, 21.6%; with W338A it was 1.3%; with Q540V, 2.4%; with T248E, 1.1%; with F159V it was 1.4%. For the same substance, the percent positive cells (first of two replicates) with F223L came out at 11.2%; with D133W, 16%; in the assay with C331I it was 1.4%; in the assay with S199C, 1.2%; in the assay with F93G it was 1.4%; in the assay with I686R, 5%. The percent positive cells (first of two replicates) was 1.2% with W614A, 1.9% in the assay with Y191I and 29.5% with I201M. Moreover, the percent positive cells (second of two replicates) was 2.1% in the assay with I491S; 36.2% in [9]; 14.8% with K617Q; 2.6% with V36R; 9.3% in the assay with E634A; 4.2% in the assay with I251S. Further, the percent positive cells (second of two replicates) with T319K is 18.8%; with V208G, 22.5%; in the assay with W338A, 2%; with Q540V, 3%; with T248E, 2%; in the assay with F159V, 1.7%. Further, the percent positive cells (second of two replicates) was 10.7% with F223L; 16% with D133W; 1.9% in the assay with C331I; 1.6% in the assay with S199C; 2.1% in the assay with F93G; 5.9% with I686R. Further, the values for the percent positive cells (second of two replicates) in the assay with W614A, with Y191I and in the assay with I201M were 2.1%, 1.9% and 29.8%, respectively. Besides, the fold increase in PG16 binding signal at saturation against wildtype in [10] is 2.4 fold. Besides, the fold higher binding at saturation against wildtype in assay [11] amounted to 2.7 fold. Also, the fold increase in PG16 binding at saturation against wildtype in assay [12] and in assay [13] was 1.6 fold in each case. The EC50 (read off the curve) stood at 0.4 nM in assay [14] and 0.2 nM in assay [15].
PGT145 (antibody) had a concentration for a half-maximal effect (EC50 (read off the curve)) in [23] of 0.5 nM.
For the substance VRC01 (antibody), the 50% effective concentration (EC50 (read off the curve)) in assay [14] and in [15] was 1 nM each time.
For “soluble CD4 sCD4-183 (domains D1-D2) (from UniProt P01730 26-208) (receptor)”, the fold increase in soluble CD4 binding against wildtype in assay [24] was found to be 3 fold. The negative-log Kd (pKd) in [3] was 7.74.

By EC50 (read off the curve) is commonly meant the concentration at which the effect is half-maximal. High values mean a need for much substance, low ones an effect from little substance. One may read the pKd as the negative decadic logarithm of the Kd, by convention in mol/L.
